The target of test [1] is T1, Recombinant human GM-CSF (human, UniProt P04141 18-144, biotinylated for the SPR assay (sites not given)). Put plainly: cell-based or functional assay.
In test [2] the target is T1, Recombinant human GM-CSF. Kind of test: surface plasmon resonance analysis, monovalent affinity; format not described. On the technique in general: In SPR one partner is held on a chip, and binding of the other changes the refractive index at the surface.

T1 sequence (P04141 18-144 limits assumed): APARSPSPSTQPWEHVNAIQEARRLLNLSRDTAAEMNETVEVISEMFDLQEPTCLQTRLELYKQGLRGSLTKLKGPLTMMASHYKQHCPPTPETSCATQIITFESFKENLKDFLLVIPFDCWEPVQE

B1: chimeric 19/2 antibody (antibody, V domains shown)
VH: EVQLQQSGPELVKPGASVKISCKASGYTFTDYNIHWVKQSHGKSLDWIGYIAPYSGGTGYNQEFKNRATLTVDKSSSTAYMELRSLTSDDSAVYYCARRDRFPYYFDYWGQGTTLRVSS
VL: DIVMIQSQKFVSTSVGDRVNITCKASQNVGSNVAWLQQKPGQSPKTLIYSASYRSGRVPDRFTGSGSGTDFILTITTVQSEDLAEYFCQQFNRSPLTFGSGTKLELK
By Kd is commonly meant a measure of binding affinity in units of concentration. Take B1: the “EC50 of inhibition of GM-CSF-dependent proliferation of a human TF-1 leukemia cell line (0.5 ng/ml GM-CSF)” value in the test with Recombinant human GM-CSF [1] is 30 pM. Besides, the Kd with Recombinant human GM-CSF [2] is roughly 10 pM.

The values above are taken from US20080171038A1 (KALOBIOS PHARMACEUTICALS, published 2008).
